According to the supplement of paper PMC9170038:

Test system: K4 kissing-loop RNA reporter
Assay: apparent KD of K4 kissing-loop reporter; higher = weaker reporter binding
Conditions: Eterna round: R107
Experimental: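 RNA-MaP round R107: designed RNA switches with theophylline, tryptophan, arginine or FMN aptamers are transcribed on-chip within common flanks. They are titrated with a labelled K4 kissing-loop RNA reporter in RNA-MaP buffer (100 mM Tris pH 7.5, 80 mM KCl, 4 mM MgCl2), without ligand or with the indicated ligand. Median apparent KD per design.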

[1] = input ligand: theophylline 20 uM
[2] = input ligand: tryptophan 2.4 mM
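Further: bound reporter read as fluorescence of individual clusters on recovered sequencing chips by microscopy, with normalized cluster intensities fitted with a binding model.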

Row | Sequence | apparent KD of K4 kissing-loop reporter (input ligand: FMN 200 uM) [nM] | apparent KD of K4 kissing-loop reporter (input ligand: arginine 13.2 mM) [nM] | apparent KD of K4 kissing-loop reporter (input ligand: none) [nM] | apparent KD of K4 kissing-loop reporter [1] [nM] | apparent KD of K4 kissing-loop reporter [2] [nM]
1 | CGCAGUGAUGUUGCUAUUGUUCUUGGUUAACGAGGACCGGUACGGCCGCCACUCGAUGUCUGUCUAGUCCAGUGUUUUUUUGAGU [whbob_EX_Tryp_A_t9] | 513 | 493 | 592 | 571 | 310
2 | CGCCACGACUGAAGGAGCGCGCCAGUGAUGUUGGACGGCUUUGUCAAGGAAACUGCACCGGUGCAGGUAGGUCGCAGUUCGUGGU [Quisbiri] | 398 | 421 | 537 | 588 | 362
3 | CGCCGCAAGGCGAGCGCUCCCACUCCGGAAGGAGCGCCCGCAAGGGCAGGUAGGUCGCCGGAGUGAUGUUCCGGUGGAGGGCUCG [#2 Exclusion - Arginine A Attempt #15 (Inspired by Omei)] | 395 | 207 | 376 | 222 | 439
4 | CGCCGUAAGGCGGUCGCUCCCACUCCGGAAGGAGCGCCCGCAAGGGCAGGUAGGUCGCCGGAGUGAUGUUCCGGUGGAGGGACCG [#2 Exclusion - Arginine A Attempt #7 (Inspired by Omei)] | 207 | 161 | 260 | 216 | 186
5 | CGCGCGCGCCGCAAGGCGCGCGCGAACGAUACCAGUAUAUAAGAAUACCCUUGGCAGCGUAAGAAAGCUAUAGUGAUGUUGUAGA [#19 K4 Theophylline A Same State] | 254 | 121 | 226 | 265 | 273
6 | CGGAACGCAUCGGCCGCCACUUUUAUCUGCAGUGAUGUUGCAGUAUCCGAGCAAGGCUGUUGUGAAAGGACCGGGAUGGUCCGUU [Tibeberi] | 87.5 | 96.6 | 92.7 | 97.4 | 143
7 | CGGUUAUAGCAGGAUACCAGUACCCAUUAUGUACGUUUAUAGUAGAGUGAUGUUCUAAAGUACCCUUGGCAGCUUCCCGUGACCC [#23 K4 Theophylline B Exclusion] | 150 | 199 | 168 | 265 | 127
8 | CGUGAGGACCUGAGGUGAUGUAUAGUAUCGCGAGGACCGGUACGGCCGCCACUCGUGAAGAGAAAGGAGUGAUGUUCCGUAAGGG | 474 | 470 | 470 | 677 | 138
9 | CGUGAGUGAUGUUCACGAGGCUUGUUUCUAGAGGAUAUUCACUUUAGAAGAAGGCUAGAGAUCUAUAUCGUGAUGCUCGAUAACG [FMN A Ex t1] | 295 | 247 | 197 | 260 | 155
10 | CGUGCCCAGCCGGAUACCAGUGACCCGCUGGGAACCGCGGGCCCAGAGUGAUGUUCGGGACACCCUUGGCAGCCGCCUGGGCGGG [#2 Same State - Theophylline B Attempt #15 (HarryS)] | 1020 | 392 | 1100 | 512 | 453
11 | CGUUCCUCUGUCGAUACCAGCUUCAGUUGGCGGCCAGUGAUGUUGGUAUCGCCGAUGCCAAGCCCUUGGCAGCGACAUGAGAACC [Uslaessobi] | 200 | 166 | 166 | 105 | 172
12 | CGUUUAUUGCAGGAUACCAGUACCCAUUAUGUACGUUUAUAGUAGAGUGAUGUUCUAAAGUACCCUUGGCAGCUUCCCGUGACCC [#22 K4 Theophylline B Exclusion] | 119 | 193 | 142 | 188 | 90.3
13 | CUAUAAGUGCCGAGUGAUGUUCGGCCAAUACGAGGACCGGUACGGCCGCCACUCGGUCAGUGAGUGCCCACCGGGCGUGGCUGAC [Leedgeis] | 261 | 225 | 209 | 253 | 124
14 | CUAUGGAAACAUAGUAAUCGGGAAACCGAUACCAGUAUGGAAACAUACCCUUGGCAGCGGAAUGAUUAAACGGAGUGAUGUUCCG [Theophylline A K4 17] | 354 | 243 | 285 | 237 | 261
15 | CUCACAGUGAUGUUGUGGGCCGAGAGUGAUACCAGCCGUAUUUGUGGCCCUUGGCAGCGCAGAACCAGUGAUGUUGGUUACUUGG [Same State Theophylline A GF 23] | 229 | 286 | 271 | 277 | 238
